According to US20260028391A1 (HUMABS BIOMED, published 2026):

Columns and labels:
biot-RSV-F wt [1] = target: T1, biot-RSV-F wt (respiratory syncytial virus (RSV)); assay: BLI, SA sensor loaded with biot-RSV-F wt, mAb 5 ug/ml, 4 min association, 6 min dissociation
[2] = target: T2, RSV F expressed on transfected Expi293F cells (respiratory syncytial virus (RSV)); assay: flow cytometry, transfected Expi293F cells, fixed and permeabilised
biot-RSV-F wt [3] = target: T1, biot-RSV-F wt; assay: BLI (Octet), biotinylated F on SA sensors, mAb 5 µg/ml
[4] = target: T3, RSV fusion glycoprotein (RSV-F), pre-fusion conformation, recombinant protein loaded on sensors (respiratory syncytial virus (RSV), …); assay: same manner as Experiment 1 (Example 6, Experiment 4)
T3 construct: also called RSV-F wt; RSV-F protein

[5] = target: T4, MPV fusion glycoprotein with the D280N mutation (MPV-F N280) (metapneumovirus); assay: biolayer interferometry (BLI), rIgG1 with M428L/N434S
T4 construct: also called MPV F D280N; MPV-F D280N

[6] = target: T5, MPV fusion glycoprotein without the D280N mutation (MPV-F D280) (metapneumovirus); assay: as above
T5 construct: also called MPV F Non-D280N; MPV-F wt

[7] = target: T6, RSV fusion glycoprotein (RSV-F) (respiratory syncytial virus); assay: as above
T6 construct: also called RSV-F wt

DS-Cav1 RSV F = target: T7, DS-Cav1 RSV F (respiratory syncytial virus); assay: ELISA on DS-Cav1 RSV F
T7 construct: also called DC-VCav1

[8] = target: fusion glycoprotein (F) of the RSV used in the GFP-based neutralization assay of Table 23 (respiratory syncytial virus); assay: cell-based or functional assay
[9] = target: fusion glycoprotein (F) of the MPV (non-D280N) used in the GFP-based neutralization assay of Table 23 (metapneumovirus); assay: cell-based or functional assay
[10] = target: fusion glycoprotein (F) of MPV A1/6621 (metapneumovirus A1/6621); assay: cell-based or functional assay
[11] = target: T4, MPV fusion glycoprotein with the D280N …; assay: SPR; F protein loaded on streptavidin sensors, mAb in solution
Description: (§1) Binding affinity of mAbs for RSV-F protein, MPV-F D280 protein, and MPV-F N280 F variant protein was assessed using surface plasmon resonance (SPR).

[12] = target: T5, MPV fusion glycoprotein without the …; assay: as above
Description: as §1

[13] = target: T6, RSV fusion glycoprotein (RSV-F); assay: as above
Description: as §1

[14] = target: RSV A Randall fusion glycoprotein (F) (RSV A, strain Randall); assay: cell-based or functional assay
RSV-B B9320 F protein = RSV-B B9320 F protein (RSV B, strain B9320); assay: cell-based or functional assay
[15] = target: fusion glycoprotein (F) of RSV B/9727 (respiratory syncytial virus B/9727); assay: cell-based or functional assay
[16] = target: fusion glycoprotein (F) of RSV A/A2/61 (respiratory syncytial virus A/A2/61, UniProt P03420 26-574); assay: cell-based or functional assay
biot-RSV-F wt [17] = target: T1, biot-RSV-F wt; assay: BLI, SA sensor loaded with biot-RSV-F wt, mAb 5 ug/ml, 4 min association, 6 min dissociation; remark: listed apart in the source
[18] = target: T2, RSV F expressed on transfected Expi293F …; assay: flow cytometry, transfected Expi293F cells, fixed and permeabilised; remark: listed apart in the source

B1: MPK77-v1.1-rIgG1m17,1-LS (antibody, V domains shown)
VH: QVQLVESGGGLVKPGGSLRLSCAASKSFSGYYMIWIRQAPGRGLEWIADISGSSTYTDYADSVKGRFTISRDNTRNTLYLQMNSLRPEDTAVYYCATEQVPSPGPFDLWGPGTLVTVSS
VL: QSVLTQPPSVSGAPGQRVIISCTGSSSNIGAGYDVHWYQQFPGTSPKLLIYRNTNRPSGVPDRFSGFKSGASAALAITGLQAEDEADYYCQSYDRSLSGWAFGGGTKVTVL
notes: called the parental mAb (v1.1); also called MPK77-v1.1-rIgG1-LS
Kd (biot-RSV-F wt [1]): < 0.001 nM
Binding (FACS) relative to parental mAb MPK77-v1.1 [2]: 1
Kd (biot-RSV-F wt [3]): < 0.001 nM

B2: MPK36-v3 (antibody, V domains shown)
VH: EVQLVESGGGLVKPGGSLRLSCAASFTISGYYMIWIRQAPGKGLEWISYISGSSTYTNYADSVKGRFTISRDNGQNTLYLHMTSLRADDTALYYCATEQTPSPGPFDLWGQGTLVTVSS
VL: QTVVTQPPSVSGAPGQRVTISCSGTSSNIGAGYDVHWYQQFPGTSPKLLIYRNFNRPSGVPDRFSGSKSGSSASLAIAGLQAEDEADYYCQSYDKSLDGWVFGGGTKVTVL
notes: also called MPK36-v3-rIgG1-LS
Kd [4]: ~0.001 nM

B3: MPH12 (antibody, IgG1, V domains shown)
VH: QVQLVESGGGLVKPGGSLRLSCVASGFTFSGFYMKWIRQAPGKGLEWVSSISASGSYTNYADSVEGRFTVSRDNAKNSLFLLMSSLRAEDTAVYYCARGDSYCGASACHGEFFHKWGQGTLVTVSS
VL: QSVLTQPPSVSGAPGQRVTISCTGSDSNIGADFDVHWYQQLPGTAPKLLIYGNINRPSGVPDRFSGSRSGTSAFLAITRLQAEDEADYYCQSYDRSLHYVFGAGTKVTVL
notes: also called WT; parental MPH12-wt
Kd [5]: 1.1 nM
Kd [6]: 0.026 nM
Kd [7]: 0.42 nM
EC50 (DS-Cav1 RSV F): 0.0326 µg/mL
RSV IC 50 (ng/mL), GFP-based in vitro neutralization [8]: 47.7 ng/mL
MPV IC50 (ng/mL), GFP-based in vitro neutralization [9]: 24.6 ng/mL
MPV IC50 (nM), neutralization of MPV A1/6621 [10]: 0.0671 nM
Kd [11]: 1.7 nM
Kd [12]: 0.001 nM
Kd [13]: 0.75 nM
RSV IC50 (ng/ml), neutralization of A/Randall [14]: 23.1 ng/mL
RSV IC50 (ng/ml), neutralization of B/9320 (RSV-B B9320 F protein): 3.29 ng/mL
RSV IC50 (ng/ml), neutralization of B/9727 [15]: 19.9 ng/mL
RSV IC50 (ng/ml), neutralization of A/A2 [16]: 142 ng/mL

B4: MPK51-v1.1-rIgG1m17,1-LS (antibody, V domains shown)
VH: QVQLVESGGGLVKPGGSLRLSCAASGFRISGYYMIWVRQAPGKGLEWISAISGMSSYITYADSVKGRFTVSRDNGQNSLFLEMKSLRGEDTAVYFCAREEVPSPGPFDLWGQGTPVTVSS
VL: QSVVTQPPSVSGAPGQRVTIFCTGSTSNIGAGYDVHWYQHLPGTAPRLLIFRNNNRPSGVPDRFSGFKSGTSASLAIIGLQVEDEADYYCQSYDRNMDGWAFGGGTKLTVL
notes: called the parental mAb (v1.1)
Kd (biot-RSV-F wt [17]): < 0.001 nM
Binding (FACS) relative to parental mAb MPK51-v1.1 [18]: 1
